B1: RCP-11: recombinant polypeptide for culture, SEQ ID NO: 25; vitronectin positions 1-55, 269-277, 295-341, 342-373, C274S (protein)
chain: MDQESCKGRCTEGFNVDKKCQCDELCSYYQSCCTDYTAECKPQVTRGDVFTMPEDESQEESEGSEDIFELLFWGRTSAGTRQPQFISRDWHGVPGQVDAAMAGRIYISGMAPRPSLAKKQRFRHRNRKGYRSQRGHSRGRNQN
modifications: Vitronectin-derived Recombinant Protein (RCP-11)
notes: vitronectin positions 1-55, 269-277, 295-341, 342-373, C274S
B2: RCP-1: recombinant polypeptide for culture, SEQ ID NO: 15; human vitronectin positions 1-55 and 269-459 with N-terminal methionine (protein)
chain: MDQESCKGRCTEGFNVDKKCQCDELCSYYQSCCTDYTAECKPQVTRGDVFTMPEDEPSQEECEGSSLSAVFEHFAMMQRDSWEDIFELLFWGRTSAGTRQPQFISRDWHGVPGQVDAAMAGRIYISGMAPRPSLAKKQRFRHRNRKGYRSQRGHSRGRNQNSRRPSRATWLSLFSSEESNLGANNYDDYRMDWLVPATCEPIQSVFFFSGDKYYRVNLRTRRVDTVDPPYPRSIAQYWLGCPAPGHL
modifications: Vitronectin-derived Recombinant Protein (RCP-1)

Legend:
iPS cells [1] = assay: Example 5: cell growth on pretreated RCP-11 surface; format: cell-based, human
Method: Meanwhile, in the same manner as in <Cell growth property evaluation 1> of Example 3, iPS cells were collected and suspended in Essential 8. The iPS cells were then seeded into the respective wells, to which 2-mercaptoethanol was added so as to accelerate the desorption of RCP-11, at a cell density of 10,000 cells/well, thereby starting culture.
After the cells were cultured for 72 hours, the number of cells was quantified in the same manner as in <Cell growth property evaluation 1> of Example 3. In the table, each of the residual rate of RCP-11 adsorbed and the cell growth rate is expressed as a ratio calculated by regarding the residual rate of the polypeptide adsorbed and the cell growth rate in the case where the pretreatment with PBS is performed as being 100%.

iPS cells [2] = assay: Evaluation of maintenance of undifferentiated state (reference examples); format: cell-based, human
Method: iPS cells collected in the same manner as in <Cell adhesiveness evaluation 1> were suspended in TeSR2. The iPS cells were seeded into 6-well plate (Tissue culture-treated, Falcon), onto which each of the samples 1, 2, 5, 6, and 7 used in <Cell adhesiveness evaluation 1> was adsorbed in the same manner as in <Cell adhesiveness evaluation 1>, and cultured in a CO2 incubator at 37° C. Except for the day after the seeding, the medium was replaced every day. In the same method as described above, the cells were subcultured every six days.
After being cultured for 1 month under the conditions described above, the cells were immobilized using 4% paraformaldehyde and treated with 1% Triton-X/PBS so as to enhance the membrane permeability. After the cells were subjected to a blocking treatment using an Image IT Signal Enhancer (Invitrogen), an anti-human NANOG antibody (AF 1997, R&D Systems, Inc.), an Alexa Fluor 555 binding rabbit anti-goat IgG antibody (Invitrogen), and DAPI (4′,6-diamidino-2-phenylindole, Dojindo Molecular Technologies, Inc.) were added thereto for labeling, and the cells were imaged using a fluorescence microscope.
FIGS. 3A and 4A show the iPS cells cultured on RCP-1; FIGS. 3B and 4B show the iPS cells cultured on RCP-11; FIGS. 3C and 4C show the iPS cells cultured on natural human vitronectin; FIGS. 3D and 4D show the iPS cells cultured on rLaminin-5; and FIGS. 3E and 4E show the iPS cells cultured on rLaminin-511. The scale bar in the images indicates […]. In FIGS. 3A to 3E, the images on the left side are full images of the colony, and the images on the right side are magnified images. In FIGS. 4A to 4E, the images on the left side are images of the cells stained with DAPI, and the images on the right side are images of the cells stained with an anti-NANOG antibody. The scale bar in FIGS. 3A to 4E indicates 200 μm.

Molecule | Cell growth rate (%) (iPS cells [1]; pretreatment 2-Mercaptoethanol 8.96 μM (0.00007% by mass), Essential 8, 72 hours, PBS pretreatment = 100%) | Cell growth rate (%) (iPS cells [1]; pretreatment 2-Mercaptoethanol 895.94 μM (0.007% by mass), Essential 8, 72 hours, PBS pretreatment = 100%) | Cell growth rate (%) (iPS cells [1]; pretreatment 2-Mercaptoethanol 89.6 mM (0.7% by mass), Essential 8, 10,000 cells/well, 72 hours, PBS pretreatment = 100%) | Cell growth rate (%) (iPS cells [1]; pretreatment PBS, Essential 8, 72 hours, this = 100%) | form of iPS cell colony (iPS cells [2]; TeSR2, subcultured every six days, FIGS. 3A to 3E) | NANOG expression (iPS cells [2]; cultured for 1 month in TeSR2, anti-NANOG staining, FIGS. 4A to 4E)
B1 | 85.2 | 70.7 | 38.0 | 100 |  | 
B2 |  |  |  |  | form specific to undifferentiated cells | strongly expressed NANOG in the entirety of the colony

From patent publication US10487307B2, “Culture method for pluripotent stem cells” (FUJIFILM CORPORATION, priority 2013, dated 2019)
